Laboratory results: patent US20150259426A1 (Novartis, published 2015)
Where two headings read alike, the source gives them in different places.

What was measured:
[1] = biological target: T1, cell-bound human DR5 (Colo205 and other human cell lines) (human, UniProt O14763 56-440); test: cell-based or functional assay
[2] = biological target: T1, cell-bound human DR5 (Colo205 and other …); test: cell-based or functional assay; remark: listed apart in the source
[3] = biological target: T1, cell-bound human DR5 (Colo205 and other …); test: cell-based or functional assay; remark: listed apart in the source
[4] = biological target: T1, cell-bound human DR5 (Colo205 and other …); test: cell-based or functional assay; remark: listed apart in the source
[5] = biological target: T2, OX40 extracellular domain (TNFRSF4, Gly33-Gly212) (UniProt P43489 33-212); test: ELISA, receptor ECD from E. coli lysate on His capture plate;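 also: binding specificity screen across TNF receptor superfamily ectodomains, anti-V5 detection as expression reference, primary antibody incubation 1 h at room temperature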
T2 construct: ECD cloned into pBadThioTopo; E. coli lysate on His capture plates
T2 sequence (looked up): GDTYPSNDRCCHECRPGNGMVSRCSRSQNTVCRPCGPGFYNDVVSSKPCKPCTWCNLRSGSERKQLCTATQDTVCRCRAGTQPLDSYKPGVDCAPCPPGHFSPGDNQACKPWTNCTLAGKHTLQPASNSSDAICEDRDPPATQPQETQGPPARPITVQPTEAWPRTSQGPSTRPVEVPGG

[6] = biological target: T3, DcR2 extracellular domain (TNFRSF10D, Thr57-Thr198) (UniProt Q9UBN6 57-198); test: as above
T3 construct: range 57-198; ECD cloned into pBadThioTopo; E. coli lysate on His capture plates
T3 sequence (looked up): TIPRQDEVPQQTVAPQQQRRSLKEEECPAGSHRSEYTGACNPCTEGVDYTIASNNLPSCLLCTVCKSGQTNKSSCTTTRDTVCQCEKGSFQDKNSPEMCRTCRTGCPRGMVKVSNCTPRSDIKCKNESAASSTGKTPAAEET

[7] = biological target: T4, CD137 extracellular domain (TNFRSF9, Glu19-Ile188) (UniProt Q07011 19-188); test: as above
T4 construct: range 19-188; ECD cloned into pBadThioTopo; E. coli lysate on His capture plates
T4 sequence (Q07011 19-188 limits assumed): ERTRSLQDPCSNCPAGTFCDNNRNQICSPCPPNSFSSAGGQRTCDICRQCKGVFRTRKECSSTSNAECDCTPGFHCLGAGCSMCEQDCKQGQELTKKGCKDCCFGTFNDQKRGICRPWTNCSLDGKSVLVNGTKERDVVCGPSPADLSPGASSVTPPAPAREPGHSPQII

[8] = biological target: T5, DcR3 (TNFRSF6B, Val27-Ala176) (UniProt O95407 27-176); test: as above
T5 construct: range 27-176; ECD cloned into pBadThioTopo; E. coli lysate on His capture plates
T5 sequence (looked up): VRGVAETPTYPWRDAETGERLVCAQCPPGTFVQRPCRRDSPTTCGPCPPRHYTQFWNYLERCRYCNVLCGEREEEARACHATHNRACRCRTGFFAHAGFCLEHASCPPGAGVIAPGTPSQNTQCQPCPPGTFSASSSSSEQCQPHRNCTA

[9] = biological target: T6, hGITR (human, UniProt Q9Y5U5); test: as above
T6 construct: extracellular domain, E. coli lysate captured on a His capture plate; Target named only on the sheet; the construct is not described in the text
T6 sequence (extracellular domain, looked up): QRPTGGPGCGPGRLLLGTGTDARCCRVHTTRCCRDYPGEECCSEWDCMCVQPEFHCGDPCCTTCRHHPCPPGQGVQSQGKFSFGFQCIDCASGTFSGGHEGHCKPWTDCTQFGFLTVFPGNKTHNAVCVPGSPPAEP

[10] = biological target: T7, BAFFR extracellular domain (TNFRSF13C, Met1-Gly64) (UniProt Q96RJ3 1-64); test: as above
T7 construct: range 1-64; ECD cloned into pBadThioTopo; E. coli lysate on His capture plates
T7 sequence (Q96RJ3 1-64 limits assumed): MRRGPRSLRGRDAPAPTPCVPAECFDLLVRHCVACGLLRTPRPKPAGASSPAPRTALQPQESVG

[11] = biological target: T8, CD27 extracellular domain (TNFRSF7, Thr21-Ser187) (UniProt P26842 21-187); test: as above
T8 construct: range 21-187; ECD cloned into pBadThioTopo; E. coli lysate on His capture plates
T8 sequence (P26842 21-187 limits assumed): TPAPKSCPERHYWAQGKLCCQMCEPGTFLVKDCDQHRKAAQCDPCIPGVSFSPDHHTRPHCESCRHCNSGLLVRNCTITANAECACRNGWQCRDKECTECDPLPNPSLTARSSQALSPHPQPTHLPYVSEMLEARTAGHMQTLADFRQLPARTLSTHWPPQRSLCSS

[12] = biological target: T9, CD40 extracellular domain (TNFRSF5, Val18-Leu192) (UniProt P25942 18-192); test: as above
T9 construct: range 18-192; ECD cloned into pBadThioTopo; E. coli lysate on His capture plates
T9 sequence (P25942 18-192 limits assumed): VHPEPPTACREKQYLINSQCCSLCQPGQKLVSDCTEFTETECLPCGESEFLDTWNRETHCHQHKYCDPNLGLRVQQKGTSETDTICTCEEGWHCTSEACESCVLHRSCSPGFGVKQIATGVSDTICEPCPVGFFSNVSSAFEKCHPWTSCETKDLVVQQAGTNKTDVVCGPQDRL

[13] = biological target: T10, FAS extracellular domain (TNFRSF6, Ser20-Gly175) (UniProt P25445 20-175); test: as above
T10 construct: ECD cloned into pBadThioTopo; E. coli lysate on His capture plates
T10 sequence (looked up): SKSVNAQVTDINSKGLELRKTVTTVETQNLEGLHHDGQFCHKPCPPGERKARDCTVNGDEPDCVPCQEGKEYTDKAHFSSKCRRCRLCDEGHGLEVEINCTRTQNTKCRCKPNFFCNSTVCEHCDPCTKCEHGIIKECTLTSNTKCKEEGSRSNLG

[14] = biological target: T11, TNFR3 extracellular domain (TNFRSF3, Pro30-Thr224) (UniProt P36941 30-224); test: as above
T11 construct: range 30-224; ECD cloned into pBadThioTopo; E. coli lysate on His capture plates
T11 sequence (P36941 30-224 limits assumed): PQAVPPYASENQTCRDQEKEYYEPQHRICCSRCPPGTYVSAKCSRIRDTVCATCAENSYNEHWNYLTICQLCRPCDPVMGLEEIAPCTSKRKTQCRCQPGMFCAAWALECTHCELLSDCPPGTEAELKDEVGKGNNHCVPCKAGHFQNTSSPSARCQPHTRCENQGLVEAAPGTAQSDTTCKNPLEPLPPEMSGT

[15] = biological target: T12, TNFR1 extracellular domain (TNFRSF1A, Leu34-Thr211) (UniProt P19438 34-211); test: as above
T12 construct: range 34-211; ECD cloned into pBadThioTopo; E. coli lysate on His capture plates
T12 sequence (looked up): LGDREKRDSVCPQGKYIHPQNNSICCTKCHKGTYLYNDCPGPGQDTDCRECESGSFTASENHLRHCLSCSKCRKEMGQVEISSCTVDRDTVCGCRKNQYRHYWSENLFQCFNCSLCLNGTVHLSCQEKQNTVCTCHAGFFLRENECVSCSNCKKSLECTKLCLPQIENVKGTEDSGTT

[16] = biological target: T13, OPG (TNFRSF11B, Lys17-Ile197) (UniProt O00300 17-197); test: as above
T13 construct: range 17-197; ECD cloned into pBadThioTopo; E. coli lysate on His capture plates
T13 sequence (looked up): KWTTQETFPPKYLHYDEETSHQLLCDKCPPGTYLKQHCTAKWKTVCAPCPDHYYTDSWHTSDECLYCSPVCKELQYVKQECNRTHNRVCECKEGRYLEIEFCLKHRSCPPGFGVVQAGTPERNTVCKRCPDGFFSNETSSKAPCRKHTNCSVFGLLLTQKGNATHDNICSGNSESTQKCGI

[17] = biological target: T1, cell-bound human DR5 (Colo205 and other …); test: cell-based or functional assay; remark: listed apart in the source

B1: 11H6-hu tetra (11H6 hu tetramer) (VHH)
chain: EVQLLESGGGLVQPGGSLRLSCAASGTFDKINNMGWYRQAPGKQRDLVAQITPGGITDYADSVKGRFTISRDNSKNTLYLQMNSLRPEDTAVYYCNAEILKRAYIDVYVNYWGQGTLVTVSSGGGGSGGGGSGGGGSGGGGSGGGGSGGGGSGGGGSEVQLLESGGGLVQPGGSLRLSCAASGTFDKINNMGWYRQAPGKQRDLVAQITPGGITDYADSVKGRFTISRDNSKNTLYLQMNSLRPEDTAVYYCNAEILKRAYIDVYVNYWGQGTLVTVSSGGGGSGGGGSGGGGSGGGGSGGGGSGGGGSGGGGSEVQLLESGGGLVQPGGSLRLSCAASGTFDKINNMGWYRQAPGKQRDLVAQITPGGITDYADSVKGRFTISRDNSKNTLYLQMNSLRPEDTAVYYCNAEILKRAYIDVYVNYWGQGTLVTVSSGGGGSGGGGSGGGGSGGGGSGGGGSGGGGSGGGGSEVQLLESGGGLVQPGGSLRLSCAASGTFDKINNMGWYRQAPGKQRDLVAQITPGGITDYADSVKGRFTISRDNSKNTLYLQMNSLRPEDTAVYYCNAEILKRAYIDVYVNYWGQGTLVTVSS
Q: With B1 as the binder, how does the “IC50, cell survival, A549” value [1] read?
A: Its value is over 10 nM.

Q: And the “IC50, cell survival, BxPC-3” value [1]?
A: The value was 0.0154 nM.

Q: And the “IC50, cell survival, Colo205” value [1]?
A: The value was 0.0036 nM.

Q: What about the “IC50, cell survival, H226” value [1] of the same binder?
A: The value was 0.172 nM.

Q: And the “IC50, cell survival, H2122” value [1]?
A: The value was 0.0041 nM.

Q: What about the “IC50, cell survival, Jurkat (72)” value [1] of the same binder?
A: The value was 0.0007 nM.

Q: What about the “IC50, cell survival, M30” value [1] of the same binder?
A: The value was over 10 nM.

Q: And the “IC50, cell survival, MiaPaCa-2” value [1]?
A: Its value is 0.0117 nM.

Q: And the “IC50, cell survival, Panc-1” value [1]?
A: The value was 0.232 nM.

Q: And the “IC50, cell survival, T24” value [1]?
A: The value was 0.0222 nM.

Q: And the “IC50, cell survival, Colo205” value [2]?
A: The value was 0.02 nM.

Q: And the “IC50, cell survival, Jurkat” value [2]?
A: The value was 0.016 nM.

B2: 4E6-Hu tetra (4E6 hu tetramer) (other)
chain: EVQLLESGGGLVQPGGSLRLSCAASGRTFGSIRVGWFRQAPGKGREFVSAINRNDGTTYYADSVKGRFTISRDNSKNTVYLQMNSLRPEDTAVYYCAAGLQYNRAADRVPVGAVYWGQGTLVTVSSGGGGSGGGGSGGGGSGGGGSGGGGSGGGGSGGGGSEVQLLESGGGLVQPGGSLRLSCAASGRTFGSIRVGWFRQAPGKGREFVSAINRNDGTTYYADSVKGRFTISRDNSKNTVYLQMNSLRPEDTAVYYCAAGLQYNRAADRVPVGAVYWGQGTLVTVSSGGGGSGGGGSGGGGSGGGGSGGGGSGGGGSGGGGSEVQLLESGGGLVQPGGSLRLSCAASGRTFGSIRVGWFRQAPGKGREFVSAINRNDGTTYYADSVKGRFTISRDNSKNTVYLQMNSLRPEDTAVYYCAAGLQYNRAADRVPVGAVYWGQGTLVTVSSGGGGSGGGGSGGGGSGGGGSGGGGSGGGGSGGGGSEVQLLESGGGLVQPGGSLRLSCAASGRTFGSIRVGWFRQAPGKGREFVSAINRNDGTTYYADSVKGRFTISRDNSKNTVYLQMNSLRPEDTAVYYCAAGLQYNRAADRVPVGAVYWGQGTLVTVSS
Q: Which “IC50, cell survival, A549” value [1] does the source give for B2 here?
A: Its value is over 10 nM.

Q: What about the “IC50, cell survival, BxPC-3” value [1] of the same binder?
A: The value was 0.0292 nM.

Q: And the “IC50, cell survival, Colo205” value [1]?
A: The value was 0.0034 nM.

Q: What about the “IC50, cell survival, H226” value [1] of the same binder?
A: The value was 0.129 nM.

Q: What about the “IC50, cell survival, H2122” value [1] of the same binder?
A: Its value is 0.0051 nM.

Q: And the “IC50, cell survival, Jurkat (72)” value [1]?
A: The value was 0.0172 nM.

Q: What about the “IC50, cell survival, M30” value [1] of the same binder?
A: Its value is over 10 nM.

Q: And the “IC50, cell survival, MiaPaCa-2” value [1]?
A: Its value is 0.0185 nM.

Q: And the “IC50, cell survival, Panc-1” value [1]?
A: Its value is 0.229 nM.

Q: And the “IC50, cell survival, T24” value [1]?
A: Its value is 0.0447 nM.

Q: What about the “IC50, cell survival, Colo205” value [3] of the same binder?
A: The value was 0.012 nM.

Q: And the “IC50, cell survival, Jurkat” value [3]?
A: Its value is 0.0026 nM.

B3: 7A12 tetra (tetravalent anti-DR5 NB construct) (other)
chain: EVQLVESGGGLVQAGGSLRLSCAASGRTFSNYAMGWFRQAPGKEREFVAALNWSGGSTYYVDSVKGRFTISRDNAKNTVYLQMNSLKPEDTAVYYCAAAGSFSLGGRPYGDDYWGKGTLVTVSSGGGGSGGGGSGGGGSGGGGSGGGGSGGGGSGGGGSEVQLVESGGGLVQAGGSLRLSCAASGRTFSNYAMGWFRQAPGKEREFVAALNWSGGSTYYVDSVKGRFTISRDNAKNTVYLQMNSLKPEDTAVYYCAAAGSFSLGGRPYGDDYWGKGTLVTVSSGGGGSGGGGSGGGGSGGGGSGGGGSGGGGSGGGGSEVQLVESGGGLVQAGGSLRLSCAASGRTFSNYAMGWFRQAPGKEREFVAALNWSGGSTYYVDSVKGRFTISRDNAKNTVYLQMNSLKPEDTAVYYCAAAGSFSLGGRPYGDDYWGKGTLVTVSSGGGGSGGGGSGGGGSGGGGSGGGGSGGGGSGGGGSEVQLVESGGGLVQAGGSLRLSCAASGRTFSNYAMGWFRQAPGKEREFVAALNWSGGSTYYVDSVKGRFTISRDNAKNTVYLQMNSLKPEDTAVYYCAAAGSFSLGGRPYGDDYWGKGTLVTVSS
notes: four VHH units in one chain joined by GlySer linkers; not shown: C-terminal c-myc/His6 tag from vector pAX51
Q: What does the source list for B3?
A: IC50, cell survival, 184A1 [4]: ≥ 20 nM; IC50, cell survival, A549 [4]: ≥ 20 nM; IC50, cell survival, ARPE-19 [4]: ≥ 20 nM; IC50, cell survival, BxPC-3 [4]: 0.023 nM; IC50, cell survival, Colo205 [4]: 0.0066 nM; IC50, cell survival, H226 [4]: ≥ 20 nM; IC50, cell survival, H2052 [4]: 0.033 nM; IC50, cell survival, H2122 [4]: 0.0036 nM; IC50, cell survival, HAAE-1 [4]: ≥ 20 nM; IC50, cell survival, Huvec [4]: ≥ 20 nM; IC50, cell survival, Jurkat [4]: 0.037 nM; IC50, cell survival, M30 [4]: ≥ 20 nM; IC50, cell survival, Malme-3 [4]: ≥ 20 nM; IC50, cell survival, MiaPaCa-2 [4]: 0.041 nM; IC50, cell survival, Molt4 [4]: ≥ 20 nM; IC50, cell survival, Panc-1 [4]: ≥ 20 nM; IC50, cell survival, WI-38 [4]: ≥ 20 nM; binding result [5]: no binding (tested: not stated); binding result [6]: no binding (tested: not stated); binding result [7]: no binding (tested: not stated); binding result [8]: no binding (tested: not stated); binding result [9]: no binding (tested: not stated); binding result [10]: no binding (tested: not stated); binding result [11]: no binding (tested: not stated); binding result [12]: no binding (tested: not stated); binding result [13]: no binding (tested: not stated); binding result [14]: no binding (tested: not stated); binding result [15]: no binding (tested: not stated); binding result [16]: no binding (tested: not stated); EC50, caspase 3/7 in Colo205 tumor after a single dose in mice, indirect response model [17]: 1.41 ng/mg tissue
